Data taken from paper PMC4256255 (PLoS Pathogens, 2014).

Target: the molecule itself
Test: SEC-MALS

B1: D8 Δ262 construct (amino acids 1–261, lacking Cys 262) (domain or fragment)
chain: MPQQLSPINIETKKAISNARLKPLDIHYNESKPTTIQNTGKLVRINFKGGYISGGFLPNEYVLSSLHIYWGKEDDYGSNHLIDVYKYSGEINLVHWNKKKYSSYEEAKKHDDGLIIISIFLQVLDHKNVYFQKIVNQLDSIRSANTSAPFDSVFYLDNLLPSKLDYFTYLGTTINHSADAVWIIFPTPINIHSDQLSKFRTLLSSSNHDGKPHYITENYRNPYKLNDDTQVYYSGEIIRAATTSPARENYFMRWLSDLRET
stoichiometry N: 6
